{
  "source": "patent US20210398607A1",
  "about": "“METHODS FOR DESIGNING ANTIBODY SMALL-MOLECULE CONJUGATES” (priority 2020, published 2021)",
  "key": {"[1]": {"biological_target": "T1, mSA (monomeric streptavidin construct), wild type", "T1 construct": "also called mSAWT", "T1 chain": "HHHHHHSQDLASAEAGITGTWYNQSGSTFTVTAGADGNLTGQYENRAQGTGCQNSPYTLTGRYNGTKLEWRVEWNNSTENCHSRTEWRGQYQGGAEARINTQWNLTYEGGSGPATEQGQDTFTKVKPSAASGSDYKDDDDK", "assay": "SPR, immobilized mSA"}, "[2]": {"biological_target": "T1, mSA (monomeric streptavidin construct), …", "assay": "SPR"}, "[3]": {"biological_target": "T1, mSA (monomeric streptavidin construct), …", "assay": "SPR; variant v149"}, "[4]": {"biological_target": "T1, mSA (monomeric streptavidin construct), …", "assay": "SPR, conjugate injected at 0.5, 1, 2.5, 5, 10 nM over immobilized mSAWT; fit curve; replicate 2"}, "[5]": {"biological_target": "T1, mSA (monomeric streptavidin construct), …", "assay": "SPR, conjugate injected at 0.5, 1, 2.5, 5, 10 nM over immobilized mSAWT; fit curve; replicate 3"}, "[6]": {"biological_target": "T1, mSA (monomeric streptavidin construct), …", "assay": "SPR, conjugate injected at 0.5, 1, 2.5, 5, 10 nM over immobilized mSAWT; fit curve; one of three replicates"}},
  "data": [
    {"binder": "4NBX.B nanobody, wild type (unconjugated) (VHH, also called Wildtype 4NBX.B; 4NBX.B WT) VHH: QVQLQESGGGLAQAGGSLRLSCAASGRTFSMDPMAWFRQPPGKEREFVAAGSSTGRTTYYADSVKGRFTISRDNAKNTVYLQMNSLKPEDTAVYYCAAAPYGANWYRDEYAYWGQGTQVTVSS", "values": [
      {"measurement": "binding result", "setting": "[1]", "value": "no binding (tested: 100 nM)"}
    ]},
    {"binder": "4NBX.B-biotin103 v149 (VHH) VHH: QVQLQESGGGLAQAGGSLRLSCAASGRTFSRSPMAWFRQPPGKEREFVAAGSSTGRTTYYADSVKGRFTISRDNAKNTVYLQMNSLKPEDTAVYYCAAAPYGCARYRDEYAYWGQGTQVTVSS", "values": [
      {"measurement": "fold KD improvement over biotin/mSAWT", "setting": "[2]", "value": "> 20", "unit": "fold"},
      {"measurement": "fold faster kon compared to v119", "setting": "[2]", "value": "~4", "unit": "fold"},
      {"measurement": "koff ratio relative to v119", "setting": "[2]", "value": "~0.2", "unit": "fold"},
      {"measurement": "Kd", "setting": "[3]", "value": 0.12, "unit": "nM"},
      {"measurement": "Kd", "setting": "[4]", "value": 0.11, "unit": "nM"},
      {"measurement": "koff", "setting": "[4]", "value": 0.00106, "unit": "s⁻¹"},
      {"measurement": "kon", "setting": "[4]", "value": "9.78e+06", "unit": "M⁻¹ s⁻¹"},
      {"measurement": "Kd", "setting": "[5]", "value": 0.14, "unit": "nM"},
      {"measurement": "koff", "setting": "[5]", "value": 0.00081, "unit": "s⁻¹"},
      {"measurement": "kon", "setting": "[5]", "value": "5.84e+06", "unit": "M⁻¹ s⁻¹"},
      {"measurement": "Kd", "setting": "[6]", "value": 0.11, "unit": "nM"},
      {"measurement": "koff", "setting": "[6]", "value": 0.000923, "unit": "s⁻¹"},
      {"measurement": "kon", "setting": "[6]", "value": "8.7e+06", "unit": "M⁻¹ s⁻¹"}
    ]}
  ]
}
